The text below walks through data of patent US10655124B2, “Proximity based methods for selection of binding partners” (THE SCRIPPS RESEARCH INSTITUTE, priority 2014, dated 2020).

The target of data set [1] is glucagon-like peptide 1 receptor (GLP1R) (Homo sapiens, UniProt P43220). The data set is described as follows: Proximity based reaction assay, GLP1R-TEV cleavage site-transcription factor cell line, luciferase reporter. To be noted: for S/N ratio and noise with different TEV cleavage sites: GLP1R (1-426) constructions, Exendin-4 ligand, 1-3 days post infection. In general terms: In a reporter assay the amount or activity of a reporter protein is the signal.

A further data set addresses T1, GLP1R (Homo sapiens, UniProt P43220).
T1 construct: Four TEV cleavage sites that are cleaved with varying efficiency were used for the GLP1R (1-426) constructions; expressed in transfected cells
The data set is described as follows: Proximity based reaction assay, GLP1R constructions, tdTomato reporter, fluorescent microscopy. Type of data set: cell-based.

Data set [2] deals with T2, Thrombopoietin receptor (TpoR) (Homo sapiens, UniProt P40238).
T2 construct: The coding region of TpoR or GLP1R was followed by the TEV protease cleavage site and the GAL4-VP16 transcription factor; expressed in transfected cells
T2 sequence (P40238 26-635): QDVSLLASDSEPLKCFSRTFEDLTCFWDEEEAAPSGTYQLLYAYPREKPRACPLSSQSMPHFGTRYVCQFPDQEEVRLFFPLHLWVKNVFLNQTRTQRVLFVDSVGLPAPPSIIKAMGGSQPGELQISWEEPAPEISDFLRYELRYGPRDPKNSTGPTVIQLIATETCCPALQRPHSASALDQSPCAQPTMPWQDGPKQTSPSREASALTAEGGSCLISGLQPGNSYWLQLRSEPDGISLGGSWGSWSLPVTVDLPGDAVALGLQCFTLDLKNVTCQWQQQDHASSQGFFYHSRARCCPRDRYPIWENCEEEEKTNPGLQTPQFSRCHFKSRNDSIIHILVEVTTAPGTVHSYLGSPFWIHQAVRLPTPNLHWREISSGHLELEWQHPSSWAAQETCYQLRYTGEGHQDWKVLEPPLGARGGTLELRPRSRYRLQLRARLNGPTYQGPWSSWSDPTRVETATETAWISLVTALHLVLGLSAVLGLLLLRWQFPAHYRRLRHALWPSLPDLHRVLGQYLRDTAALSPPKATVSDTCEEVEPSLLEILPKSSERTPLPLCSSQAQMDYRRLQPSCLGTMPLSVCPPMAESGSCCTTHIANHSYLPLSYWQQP
As to the kind of experiment: Proximity based reaction assay, TpoR-TEV cleavage site-transcription factor cell line, luciferase reporter. From the text:
FIG. 2. Proximity based identification of Thrombopoietin receptor (TpoR) activation. Stable cell lines harboring the luciferase reporter gene under control of UAS and TpoR-TEV cleavage site-transcription factor were established. Cells were transduced with lentivirus encoding Thrombopoietin (TPO) or the TpoR binding antibodies 3D9 or 14F12. Genes encoding different linkers including 3, 5, 6, 8, or 10 copies of (GGGGS) (SEQ ID NO:1) or a human IgG1 Fc were placed between the ligand and PDGFR trans-membrane domain. Luciferase activities were measured 2 days post infection. The cell line harboring GLP1R-TEV cleavage site-Transcription factor was used as negative cell control. The reaction was controlled by measuring the luminescence signals from control lentivirus carrying irrelevant antibodies with the same linker type and length.
The stable cell line harboring both the UAS-reporter gene and receptor-cleavage site-transcription factor was plated in a 96 well plate at 20000 cells per well. Cells were infected by lentivirus carrying the ligand-TM-TEV protease at MOI equal to 1. Cells were cultured for 24-72 h before measuring the reporter gene activity. Luciferase activity was determined by using a luciferase assay system (Promega) while expression of tdTomato was observed by fluorescent microscopy.
A similarly constructed irrelevant antibody was used as a negative control. […]

Data set [3] concerns glucagon-like peptide 1 receptor (GLP1R). The data set is described as follows: Proximity based reaction assay, GLP1R-TEV cleavage site-transcription factor cell line, luciferase reporter. As to conditions: orthogonal control for non-specific interactions; membrane displayed ligand.
A further data set deals with CXCR4 (Homo sapiens, UniProt P61073). The data set is described as follows: Proximity based reaction assay with irrelevant receptor CXCR4 replacing GLP1R. In kind it is cell-based. As to conditions: irrelevant G protein-coupled receptor control.
Sequence of CXCR4 (P61073 whole entry, species assumed): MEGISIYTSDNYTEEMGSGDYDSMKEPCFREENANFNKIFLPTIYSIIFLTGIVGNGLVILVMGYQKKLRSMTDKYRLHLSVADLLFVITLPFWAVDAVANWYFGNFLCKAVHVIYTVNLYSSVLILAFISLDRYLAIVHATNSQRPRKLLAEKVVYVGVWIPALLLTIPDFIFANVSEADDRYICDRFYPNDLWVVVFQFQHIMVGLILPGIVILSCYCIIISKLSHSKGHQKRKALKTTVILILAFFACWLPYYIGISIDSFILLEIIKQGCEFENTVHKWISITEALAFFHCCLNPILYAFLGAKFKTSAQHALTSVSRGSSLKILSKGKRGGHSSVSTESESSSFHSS

Sequence of glucagon-like peptide 1 receptor (GLP1R) (Homo sapiens, UniProt P43220) (P43220 24-426): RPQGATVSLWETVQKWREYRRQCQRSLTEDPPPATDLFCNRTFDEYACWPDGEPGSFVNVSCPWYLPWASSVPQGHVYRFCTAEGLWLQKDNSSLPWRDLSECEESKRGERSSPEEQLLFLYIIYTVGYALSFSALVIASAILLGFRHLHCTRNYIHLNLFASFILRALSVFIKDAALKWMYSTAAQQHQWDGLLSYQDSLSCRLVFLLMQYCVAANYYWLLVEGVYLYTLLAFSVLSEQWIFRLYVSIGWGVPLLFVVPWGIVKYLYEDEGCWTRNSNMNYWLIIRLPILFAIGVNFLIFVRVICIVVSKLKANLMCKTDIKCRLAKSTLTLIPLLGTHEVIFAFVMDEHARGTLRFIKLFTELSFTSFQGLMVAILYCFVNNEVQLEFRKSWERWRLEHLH
T1 sequence (P43220 24-426, species assumed): as the sequence (P43220 24-426) above

Take Vc1.1: the “signal to noise (S/N) ratio, non-specific peptide control” value in data set [1] was “even lower S/N”.
On to ENLFFQS (SEQ ID NO:7) [TEV 4], for which the “S/N ratio and noise with different TEV cleavage sites” value in data set [1] was “very high level of noise”.
Take ENLYYQS (SEQ ID NO:6) [TEV 3]: the “background with different TEV cleavage sites, tdTomato reporter” value with GLP1R is reported as “much lower background”.
With Thrombopoietin [TPO], the “transcription factor mediated signal relative to the irrelevant antibody control” value in data set [2] (ligand displayed at plasma membrane via PDGFR TM-TEV protease, lentivirus, luciferase 2 days post infection) is recorded as “increased the transcription factor mediated signal”. Further, in data set [2] (tandem repeats of GGGGS linker), the “effect of linker length between ligand and TM domain on proximity-based signal” value was “generated similar signals”. Also, in data set [3], the “signal in cells bearing the wrong receptor (GLP1R-transcription factor fusion cell line)” value is “did not increase the signal”.
For ENLYFQS (SEQ ID NO:4) [TEV1], the “S/N ratio and noise with different TEV cleavage sites” value in data set [1] was “very high level of noise”.
Turning to ENFYFQS (SEQ ID NO:5) [TEV 2], the “S/N ratio and noise with different TEV cleavage sites” value in data set [1] is “highest S/N ratio”. Also, in the data set with GLP1R, the “background with different TEV cleavage sites, tdTomato reporter” value is “much lower background”.
Regarding Exendin-4, in the data set with CXCR4, the “response when CXCR4 replaced the GLP1R” value is recorded as “no response”.
